This note sets out measurements from article PMC2191965 (The Journal of Experimental Medicine, 1995).

One test concerns the target T1, I-As (Mus musculus, UniProt P06345+P14437).
T1 sequence (P14437 1-233): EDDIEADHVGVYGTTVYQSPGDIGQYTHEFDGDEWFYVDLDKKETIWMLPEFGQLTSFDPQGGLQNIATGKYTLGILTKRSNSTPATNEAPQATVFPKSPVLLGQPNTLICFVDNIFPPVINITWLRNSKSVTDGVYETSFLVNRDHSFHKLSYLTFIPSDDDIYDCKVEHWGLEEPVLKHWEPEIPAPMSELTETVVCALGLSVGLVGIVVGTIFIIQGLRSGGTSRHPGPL
T1 sequence (P06345 28-263): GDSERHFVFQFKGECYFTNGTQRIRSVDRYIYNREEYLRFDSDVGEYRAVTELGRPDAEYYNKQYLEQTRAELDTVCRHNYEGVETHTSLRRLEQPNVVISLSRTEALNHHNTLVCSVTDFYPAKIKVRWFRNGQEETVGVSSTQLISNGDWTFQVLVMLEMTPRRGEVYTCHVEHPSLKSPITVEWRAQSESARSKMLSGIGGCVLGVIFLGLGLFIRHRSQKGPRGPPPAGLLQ
The test is classed as binding. The settings on record: purified I-As; compared with ROIV or with wild-type peptide.

A further test addresses T2, I-Ab (Mus musculus, UniProt P14434+P14483).
T2 sequence (P14434 24-256): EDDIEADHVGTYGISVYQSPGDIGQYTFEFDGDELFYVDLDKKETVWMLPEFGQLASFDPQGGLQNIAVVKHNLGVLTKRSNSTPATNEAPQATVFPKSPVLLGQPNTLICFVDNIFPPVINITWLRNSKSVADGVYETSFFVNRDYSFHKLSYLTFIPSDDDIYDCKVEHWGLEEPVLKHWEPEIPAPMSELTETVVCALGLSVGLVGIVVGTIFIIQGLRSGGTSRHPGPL
T2 sequence (P14483 28-265): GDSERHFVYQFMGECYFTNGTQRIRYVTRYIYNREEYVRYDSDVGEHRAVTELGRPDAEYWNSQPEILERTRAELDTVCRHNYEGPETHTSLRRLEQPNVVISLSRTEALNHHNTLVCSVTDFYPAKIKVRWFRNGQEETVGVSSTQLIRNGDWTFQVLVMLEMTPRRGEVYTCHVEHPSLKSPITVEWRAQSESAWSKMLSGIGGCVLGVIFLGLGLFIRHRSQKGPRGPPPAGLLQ
The settings on record: purified I-Ab; compared with binding to I-As or with wild-type peptide.

Take “myelin basic protein 81-100: I-As-restricted epitope myelin basic protein 81-100 (HPADPGNRPHLIRLFSRDAP; UniProt P04370 81-100, looked up, fragment)”: the “Binding to I-As, in words” value with I-As is on record as “as well as the ROW”. Moreover, the “Binding to I-Ab, in words” value with I-Ab is recorded as “far less affinity”.
